# Columns and labels:
# [1] = tested on: Staphylococcus lugdiensis; test: MIC, broth microdilution (CLSI M07-A9); type: cell-based; details: 10 tested
# S. aureus = test: Murine bacteremia model, survival; type: in vivo, BALB/c mice; details: for 24 hour survival rate / 72 hour survival rate: high challenge (10^9 CFU MRSA MW2), dosing at 2 hours
# Bacillus cereus = test: MIC, broth microdilution (CLSI M07-A9); type: cell-based; details: 10 tested
# Streptococcus mutans = test: MIC, broth microdilution (CLSI M07-A9); type: cell-based; details: 12 tested
# Acinetobacter baumannii = test: MIC, broth microdilution (CLSI M07-A9); type: cell-based; details: 8 tested
# Enterococcus faecium = test: MIC, broth microdilution (CLSI M07-A9); type: cell-based; details: 5 tested
# [2] = tested on: Streptococcus agalactiae, Group B; test: MIC, broth microdilution (CLSI M07-A9); type: cell-based; details: 51 tested
# Listeria monocytogenes = test: MIC, broth microdilution (CLSI M07-A9); type: cell-based; details: 12 tested
# [3] = tested on: Staphylococcus epidermidis; test: MIC, broth microdilution (CLSI M07-A9); type: cell-based; details: 11 tested
# [4] = tested on: Streptococcus pyogenes, Group A; test: MIC, broth microdilution (CLSI M07-A9); type: cell-based; details: 54 tested
# [5] = tested on: Staphylococcus aureus (MRSA and MSSA strains); test: Time kill assay, single agents at 1×MIC (CLSI); type: cell-based
# Pseudomonas aeruginosa = test: MIC, broth microdilution (CLSI M07-A9); type: cell-based
# Lactococcus spp. = test: MIC, sensitivity of human gut bacteria; type: cell-based; details: N 3
# MRSA S. aureus strains = test: Dual agent MIC assay (PlySs2 and daptomycin together, broth microdilution); type: cell-based; details: for MIC combo: PlySs2 and daptomycin combined; for MIC alone: single-agent
# Klebsiella spp. = test: MIC, sensitivity of human gut bacteria; type: cell-based; details: N 8
# [6] = tested on: MRSA strain MW2 and MSSA strain ATCC 29213; test: MIC in the presence of surfactant (Survanta), broth microdilution; type: cell-based, Staphylococcus aureus; details: range from 1.25 to 15% surfactant
# Escherichia coli = test: MIC, broth microdilution (CLSI M07-A9); type: cell-based
# Proteus mirabilis = test: MIC, sensitivity of human gut bacteria; type: cell-based; details: N 2
# MRSA strain 269 (MW2) = test: Combination MIC study in the presence of 15% surfactant (Survanta); type: cell-based, Staphylococcus aureus; details: PlySs2 plus daptomycin
# Enterococcus faecalis = test: MIC, broth microdilution (CLSI M07-A9); type: cell-based; details: 17 tested
# S. aureus cocci = test: Electron microscopy of bacteriolysis; type: cell-based; details: after only 15 seconds of treatment
# [7] = tested on: MRSA strain ATCC 700699 and MSSA strain ATCC 25923; test: microbe, parasite or virus in culture; type: cell-based, Staphylococcus aureus
# Streptococcus pneumoniae = test: MIC, broth microdilution (CLSI M07-A9); type: cell-based; details: 26 tested
# [8] = daptomycin 50 mg/kg once daily, PlySs2 5.25 mg/kg (FIG. 27B)
# [9] = vancomycin 110 mg/kg twice daily, PlySs2 5.25 mg/kg (FIG. 27E)
molecule,measurement,setting,value
"PlySs2: bacteriophage lysin derived from Streptococcus suis, amino acid sequence of FIG. 29 (SEQ ID NO: 1), N-terminal CHAP and C-terminal SH3 domain (protein, listed as Streptococcus suis) MTTVNEALNNVRAQVGSGVSVGNGECYALASWYERMISPDATVGLGAGVGWVSGAIGDTISAKNIGSSYNWQANGWTVSTSGPFKAGQIVTLGATPGNPYGHVVIVEAVDGDRLTILEQNYGGKRYPVRNYYSAASYRQQVVHYITPPGTVAQSAPNLAGSRSYRETGTMTVTVDALNVRRAPNTSGEIVAVYKRGESFDYDTVIIDVNGYVWVSYIGGSGKRNYVATGATKDGKRFGNAWGTFK",MIC 50%,[1],8 µg/mL
same,MIC 90%,[1],8 µg/mL
same,MIC Range,[1],8 µg/mL
same,protection,S. aureus; 5 mg/kg dose,significant protection
same,dose giving survival enhancement over mock-injected control,"S. aureus; dose-response, as little as",0.25 mg/kg
same,24 hour survival rate,S. aureus; [8],56%
same,72 hour survival rate,S. aureus; [8],18%
same,24 hour survival rate,S. aureus; [9],60%
same,72 hour survival rate,S. aureus; [9],3%
same,survival at 72 hours,"S. aureus; low challenge model (up to 7×10^6 CFU MRSA MW2), single dose at 4 hours, PlySs2 1.25 mg/kg, daptomycin 2 mg/kg",13%
same,MIC 50%,Bacillus cereus,>512 µg/mL
same,MIC 90%,Bacillus cereus,>512 µg/mL
same,MIC Range,Bacillus cereus,>512 µg/mL
same,MIC 50%,Streptococcus mutans,64 µg/mL
same,MIC 90%,Streptococcus mutans,256 µg/mL
same,MIC Range,Streptococcus mutans,2 to 256 µg/mL
same,MIC 50%,Acinetobacter baumannii,>512 µg/mL
same,MIC 90%,Acinetobacter baumannii,>512 µg/mL
same,MIC Range,Acinetobacter baumannii,>512 µg/mL
same,MIC 50%,Enterococcus faecium,>512 µg/mL
same,MIC 90%,Enterococcus faecium,>512 µg/mL
same,MIC 50%,[2],8 µg/mL
same,MIC 90%,[2],16 µg/mL
same,MIC Range,[2],1 to 64 µg/mL
same,MIC 50%,Listeria monocytogenes,128 µg/mL
same,MIC 90%,Listeria monocytogenes,512 µg/mL
same,MIC Range,Listeria monocytogenes,1 to 512 µg/mL
same,MIC 50%,[3],128 µg/mL
same,MIC 90%,[3],512 µg/mL
same,MIC Range,[3],4 to 512 µg/mL
same,MIC 50%,[4],2 µg/mL
same,MIC 90%,[4],8 µg/mL
same,MIC Range,[4],0.5 to 8 µg/mL
same,time to reach bactericidal levels (≥3-log10 reduction in CFUs),"[5]; 1×MIC, 20 MSSA and 42 MRSA strains",≤ 30 minutes
same,maximal kill (log reduction),"[5]; all MRSA and MSSA strains tested, generally within the first hour of incubation",≥ 3 log
same,MIC 50%,Pseudomonas aeruginosa; 5 tested,>512 µg/mL
same,MIC 90%,Pseudomonas aeruginosa; 5 tested,>512 µg/mL
same,MIC Range,Pseudomonas aeruginosa; 5 tested,>512 µg/mL
same,CF-301 MIC,"Pseudomonas aeruginosa; human gut bacteria, N 11",>512 µg/mL
same,CF-301 MIC,Lactococcus spp.,>512 µg/mL
same,Fold reduction,MRSA S. aureus strains; MRSA strain 223,4
same,MIC combo,MRSA S. aureus strains; MRSA strain 223,0.5 µg/mL
same,MIC alone,MRSA S. aureus strains; MRSA strain 223,2 µg/mL
same,Fold reduction,MRSA S. aureus strains; MRSA strain 241,2
same,MIC combo,MRSA S. aureus strains; MRSA strain 241,2 µg/mL
same,MIC alone,MRSA S. aureus strains; MRSA strain 241,4 µg/mL
same,Fold reduction,MRSA S. aureus strains; MRSA strain 263,4
same,MIC combo,MRSA S. aureus strains; MRSA strain 263,2 µg/mL
same,MIC alone,MRSA S. aureus strains; MRSA strain 263,8 µg/mL
same,Fold reduction,MRSA S. aureus strains; MRSA strain 269 (MW2),4
same,MIC combo,MRSA S. aureus strains; MRSA strain 269 (MW2),2 µg/mL
same,MIC alone,MRSA S. aureus strains; MRSA strain 269 (MW2),8 µg/mL
same,Fold reduction,MRSA S. aureus strains; MRSA strain 270,4
same,MIC combo,MRSA S. aureus strains; MRSA strain 270,2 µg/mL
same,MIC alone,MRSA S. aureus strains; MRSA strain 270,8 µg/mL
same,Fold reduction,MRSA S. aureus strains; MRSA strain 553,2
same,MIC combo,MRSA S. aureus strains; MRSA strain 553,1 µg/mL
same,MIC alone,MRSA S. aureus strains; MRSA strain 553,2 µg/mL
same,Fold reduction,MRSA S. aureus strains; MRSA strain 650,2
same,MIC combo,MRSA S. aureus strains; MRSA strain 650,4 µg/mL
same,MIC alone,MRSA S. aureus strains; MRSA strain 650,8 µg/mL
same,Fold reduction,MRSA S. aureus strains; MRSA strain 827,2
same,MIC combo,MRSA S. aureus strains; MRSA strain 827,4 µg/mL
same,MIC alone,MRSA S. aureus strains; MRSA strain 827,8 µg/mL
same,Fold reduction,MRSA S. aureus strains; MRSA strain 828,4
same,MIC combo,MRSA S. aureus strains; MRSA strain 828,2 µg/mL
same,MIC alone,MRSA S. aureus strains; MRSA strain 828,8 µg/mL
same,Fold reduction,MRSA S. aureus strains; MRSA strain 829,2
same,MIC combo,MRSA S. aureus strains; MRSA strain 829,4 µg/mL
same,MIC alone,MRSA S. aureus strains; MRSA strain 829,8 µg/mL
same,Fold reduction,MRSA S. aureus strains; MRSA strain 830,2
same,MIC combo,MRSA S. aureus strains; MRSA strain 830,2 µg/mL
same,MIC alone,MRSA S. aureus strains; MRSA strain 830,4 µg/mL
same,Fold reduction,MRSA S. aureus strains; MRSA strain 833,4
same,MIC combo,MRSA S. aureus strains; MRSA strain 833,2 µg/mL
same,MIC alone,MRSA S. aureus strains; MRSA strain 833,8 µg/mL
same,fold reduction in the effective MIC,"MRSA S. aureus strains; PlySs2 and daptomycin together, a dozen MRSA strains",2-4 fold
same,CF-301 MIC,Klebsiella spp.,>512 µg/mL
same,inhibition of MIC by surfactant,[6],8 fold
same,MIC 50%,Escherichia coli; 6 tested,>512 µg/mL
same,MIC 90%,Escherichia coli; 6 tested,>512 µg/mL
same,MIC Range,Escherichia coli; 6 tested,>512 µg/mL
same,CF-301 MIC,"Escherichia coli; human gut bacteria, N 10",>512 µg/mL
same,CF-301 MIC,Proteus mirabilis,>512 µg/mL
same,effective concentration in combination as fraction of MIC,MRSA strain 269 (MW2),⅛
same,most dilute concentration in combination that still inhibits growth,MRSA strain 269 (MW2),2 µg/mL
same,MIC 50%,Enterococcus faecalis,>512 µg/mL
same,MIC 90%,Enterococcus faecalis,>512 µg/mL
same,bacteriolysis by electron microscopy,S. aureus cocci,extensive bacteriolysis
same,MIC in daptomycin resistant clones,[7]; over 21 days of in vitro growth,2 to 4 µg/mL
same,MIC before daptomycin resistance selection,[7]; start of serial passage,8 µg/mL
same,MIC 50%,Streptococcus pneumoniae,16 µg/mL
same,MIC 90%,Streptococcus pneumoniae,64 µg/mL
same,MIC Range,Streptococcus pneumoniae,1 to 64 µg/mL
